Experimental data reported in patent US20050032146A1 (published 2005).
Each block holds one binder with its values, some of them ahead of it.

What was measured:
[1] = biological target: T1, tsks fused to the GAL 4 activation domain (AD)
T1 chain: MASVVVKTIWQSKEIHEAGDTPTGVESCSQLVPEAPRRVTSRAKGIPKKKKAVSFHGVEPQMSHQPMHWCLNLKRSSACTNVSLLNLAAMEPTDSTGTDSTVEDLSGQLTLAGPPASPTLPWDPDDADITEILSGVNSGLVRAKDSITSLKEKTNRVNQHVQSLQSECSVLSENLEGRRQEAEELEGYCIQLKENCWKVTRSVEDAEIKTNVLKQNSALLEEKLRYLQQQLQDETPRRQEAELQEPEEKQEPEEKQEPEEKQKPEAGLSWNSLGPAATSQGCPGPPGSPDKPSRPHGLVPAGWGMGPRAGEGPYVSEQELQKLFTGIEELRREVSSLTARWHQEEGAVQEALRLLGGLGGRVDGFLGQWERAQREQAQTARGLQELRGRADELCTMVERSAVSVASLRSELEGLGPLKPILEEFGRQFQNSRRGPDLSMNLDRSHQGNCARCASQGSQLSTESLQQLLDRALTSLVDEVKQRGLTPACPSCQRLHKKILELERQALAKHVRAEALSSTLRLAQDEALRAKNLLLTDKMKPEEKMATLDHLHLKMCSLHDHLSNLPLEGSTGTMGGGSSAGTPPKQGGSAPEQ

[2] = biological target: T2, tssk 2 fused to the GAL4 DNA binding domain (DNA-BD) (human, UniProt P04386 1-147 (Saccharomyces cerevisiae entry), limits assumed); assay: yeast two-hybrid, growth in His-free medium (AH109)
T2 construct: Yeast two-hybrid bait expressed in the AH109 reporter strain; also called bait gene (tssk 2); fusion protein of tssk 2 with the DNA-BD
Method: In this experiment, a bait gene (tssk 2) was first transformed into the reporter strain as a fusion to the GAL4 DNA binding domain (DNA-BD). A second plasmid that expressed tsks as fusion to the GAL 4 activation domain (AD) was also introduced into the AH109 reporter strain. Western blots were performed to confirm expression of fusion proteins in yeast. […] This interaction was used as a positive control. […] Neither GAL-AD alone nor the fusion proteins between GAL-AD and TSKS or GAL-AD and SV40 Large T antigen had the ability to activate transcription of the His gene.

B1: tssk 2 fused to the GAL4 DNA binding domain (DNA-BD) (protein)
chain: MKLLSSIEQACDICRLKKLKCSKEKPKCAKCLKNNWECRYSPKTKRSPLTRAHLTEVESRLERLEQLFLLIFPREDLDMILKMDSLQDIKALLTGLFVQDNVNKDAVTDRLASVETDMPLTLRQHRISATSSSEESSNKGQRQLTVSMDDATVLRKKGYIVGINLGKGSYAKVKSAYSERLKFNVAVKIIDRKKTPTDFVERFLPREMDILATVNHGSIIKTYEIFETSDGRIYIIMELGVQGDLLEFIKCQGALHEDVARKMFRQLSSAVKYCHDLDIVHRDLKCENLLLDKDFNIKLSDFGFSKRCLRDSNGRIILSKTFCGSAAYAAPEVLQSIPYQPKVYDIWSLGVILYIMVCGSMPYDDSDIRKMLRIQKEHRVDFPRSKNLTCECKDLIYRMLQPDVSQRLHIDEILSHSWLQPPKPKATSSASFKREGEGKYRAECKLDTKTGLRPDHRPDHKLGAKTQHRLLVVPENENRMEDRLAETSRAKDHHISGAEVGKAST
transcription of the Histidine (HIS) gene; growth of yeast in His-free medium [1]: promote transcription of the Histidine (HIS) gene and allow for the growth of yeast in His-free medium

binding result [2]: no binding
B2: GAL 4 activation domain alone (GAL-AD plasmid) (other, UniProt P04386 768-881, looked up)
chain: ANFNQSGNIADSSLSFTFTNSSNGPNLITTQTNSQALSQPIASSNVHDNFMNNEITASKIDDGNNSKPLSPGWTDQTAYNAFGITTGMFNTTTMDDVYNYLFDDEDTPPNPKKE
notes: Negative-control prey without an insert; also called GAL-AD alone
